B1: Catenin alpha-3 (Homo sapiens), Q9UI47-2 (parent)
chain: MSAETPITLNIDPQDLQVQTFTVEKLLEPLIIQVTTLVNCPQNPSSRKKGRSKRASVLLASVEEATWNLLDKGEKIAQEATVLKDELTASLEEVRKESEALKVSAERFTDDPCFLPKREAVVQAARALLAAVTRLLILADMIDVMCLLQHVSAFQRTFESLKNVANKSDLQKTYQKLGKELENLDYLAFKRQQDLKSPNQRDEIAGARASLKENSPLLHSICSACLEHSDVASLKASKDTVCEEIQNALNVISNASQGIQNMTTPPEPQAATLGSALDELENLIVLNPLTVTEEEIRPSLEKRLEAIISGAALLADSSCTRDLHRERIIAECNAIRQALQDLLSEYMNNAGKKERSNTLNIALDNMCKKTRDLRRQLRKAIIDHVSDSFLDTTVPLLVLIEAAKNGREKEIKEYAAIFHEHTSRLVEVANLACSMSTNEDGIKIVKIAANHLETLCPQIINAALALAARPKSQAVKNTMEMYKRTWENHIHVLTEAVDDITSIDDFLAVSGMFLFF
partner: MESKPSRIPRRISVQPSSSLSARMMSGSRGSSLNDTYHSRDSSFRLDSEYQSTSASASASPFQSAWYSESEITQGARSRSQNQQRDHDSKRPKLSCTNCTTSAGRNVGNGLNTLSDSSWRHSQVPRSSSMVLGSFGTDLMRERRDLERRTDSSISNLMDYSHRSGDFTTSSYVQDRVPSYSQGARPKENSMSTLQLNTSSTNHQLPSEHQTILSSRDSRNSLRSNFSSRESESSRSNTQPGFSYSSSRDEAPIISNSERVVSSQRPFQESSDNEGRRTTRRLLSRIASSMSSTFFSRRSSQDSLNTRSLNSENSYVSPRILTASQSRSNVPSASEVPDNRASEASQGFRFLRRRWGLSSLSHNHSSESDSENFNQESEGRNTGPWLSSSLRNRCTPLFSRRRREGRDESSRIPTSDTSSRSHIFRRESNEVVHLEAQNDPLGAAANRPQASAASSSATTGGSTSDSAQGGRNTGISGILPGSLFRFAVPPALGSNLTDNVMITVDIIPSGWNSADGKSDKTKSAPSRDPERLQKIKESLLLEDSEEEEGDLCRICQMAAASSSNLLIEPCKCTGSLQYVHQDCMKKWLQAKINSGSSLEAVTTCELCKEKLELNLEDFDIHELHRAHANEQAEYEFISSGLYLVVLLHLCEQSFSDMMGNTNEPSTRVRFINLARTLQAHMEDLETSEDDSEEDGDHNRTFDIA
B2: Catenin alpha-3 (Homo sapiens), Q9UI47-2 (parent)
chain: B1 chain
partner: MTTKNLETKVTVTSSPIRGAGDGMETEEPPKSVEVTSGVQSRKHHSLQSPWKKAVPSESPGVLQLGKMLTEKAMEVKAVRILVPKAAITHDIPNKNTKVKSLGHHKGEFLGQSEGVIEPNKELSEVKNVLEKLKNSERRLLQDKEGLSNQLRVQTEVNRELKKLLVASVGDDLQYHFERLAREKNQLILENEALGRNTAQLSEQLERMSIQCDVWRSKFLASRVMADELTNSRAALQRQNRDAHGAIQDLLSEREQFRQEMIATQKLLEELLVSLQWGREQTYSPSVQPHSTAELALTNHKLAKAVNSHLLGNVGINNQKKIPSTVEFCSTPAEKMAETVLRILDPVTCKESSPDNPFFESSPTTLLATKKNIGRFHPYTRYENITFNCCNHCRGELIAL
B3: Catenin alpha-3 (Homo sapiens), Q9UI47-2 (parent)
chain: B1 chain
partner: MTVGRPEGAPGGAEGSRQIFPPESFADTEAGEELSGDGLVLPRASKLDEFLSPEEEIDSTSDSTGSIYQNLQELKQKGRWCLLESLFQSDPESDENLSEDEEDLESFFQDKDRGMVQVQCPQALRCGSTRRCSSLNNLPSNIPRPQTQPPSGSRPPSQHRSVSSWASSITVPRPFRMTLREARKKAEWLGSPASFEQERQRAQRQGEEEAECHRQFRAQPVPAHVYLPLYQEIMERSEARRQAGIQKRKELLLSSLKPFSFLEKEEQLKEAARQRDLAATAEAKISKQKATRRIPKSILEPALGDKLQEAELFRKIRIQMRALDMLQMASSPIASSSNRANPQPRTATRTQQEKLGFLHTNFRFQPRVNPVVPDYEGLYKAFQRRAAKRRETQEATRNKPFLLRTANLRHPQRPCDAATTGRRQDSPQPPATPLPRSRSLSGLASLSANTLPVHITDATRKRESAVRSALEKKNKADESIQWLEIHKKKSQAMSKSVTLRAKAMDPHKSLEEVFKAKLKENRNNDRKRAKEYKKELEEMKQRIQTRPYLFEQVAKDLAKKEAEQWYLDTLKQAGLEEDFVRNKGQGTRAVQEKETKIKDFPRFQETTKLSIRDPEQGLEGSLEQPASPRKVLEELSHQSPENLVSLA
B4: Very-long-chain enoyl-CoA reductase (Homo sapiens), Q9NZ01 (parent)
chain: MKHYEVEILDAKTREKLCFLDKVEPHATIAEIKNLFTKTHPQWYPARQSLRLDPKGKSLKDEDVLQKLPVGTTATLYFRDLGAQISWVTVFLTEYAGPLFIYLLFYFRVPFIYGHKYDFTSSRHTVVHLACICHSFHYIKRLLETLFVHRFSHGTMPLRNIFKNCTYYWGFAAWMAYYINHPLYTPPTYGAQQVKLALAIFVICQLGNFSIHMALRDLRPAGSKTRKIPYPTKNPFTWLFLLVSCPNYTYEVGSWIGFAIMTQCLPVALFSLVGFTQMTIWAKGKHRSYLKEFRDYPPLRMPIIPFLL
partner: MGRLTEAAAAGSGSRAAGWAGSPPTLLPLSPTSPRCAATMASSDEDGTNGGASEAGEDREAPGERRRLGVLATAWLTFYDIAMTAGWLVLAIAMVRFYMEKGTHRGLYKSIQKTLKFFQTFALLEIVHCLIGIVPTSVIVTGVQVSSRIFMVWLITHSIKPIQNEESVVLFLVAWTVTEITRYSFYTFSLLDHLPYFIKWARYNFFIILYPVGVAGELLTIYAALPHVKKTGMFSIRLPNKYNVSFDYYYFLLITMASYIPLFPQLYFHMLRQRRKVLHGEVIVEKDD
B5: Catenin alpha-3 (Homo sapiens), Q9UI47-2 (parent)
chain: B1 chain
partner: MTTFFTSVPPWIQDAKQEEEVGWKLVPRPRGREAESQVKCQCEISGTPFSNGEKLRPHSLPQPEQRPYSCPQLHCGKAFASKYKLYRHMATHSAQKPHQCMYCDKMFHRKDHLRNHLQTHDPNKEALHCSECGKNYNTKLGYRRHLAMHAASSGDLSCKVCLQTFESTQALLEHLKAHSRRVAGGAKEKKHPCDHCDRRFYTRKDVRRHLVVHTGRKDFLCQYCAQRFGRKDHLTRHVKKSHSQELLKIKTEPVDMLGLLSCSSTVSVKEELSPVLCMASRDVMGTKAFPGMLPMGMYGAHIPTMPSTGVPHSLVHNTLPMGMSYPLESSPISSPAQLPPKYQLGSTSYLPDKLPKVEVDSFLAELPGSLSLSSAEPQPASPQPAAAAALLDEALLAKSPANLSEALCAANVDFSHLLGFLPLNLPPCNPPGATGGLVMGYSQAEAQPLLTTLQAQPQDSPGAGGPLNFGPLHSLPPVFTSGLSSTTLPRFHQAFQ
B6: Golgi SNAP receptor complex member 2 (Homo sapiens), O14653 (parent)
chain: MDPLFQQTHKQVHEIQSCMGRLETADKQSVHIVENEIQASIDQIFSRLERLEILSSKEPPNKRQNARLRVDQLKYDVQHLQTALRNFQHRRHAREQQERQREELLSRTFTTNDSDTTIPMDESLQFNSSLQKVHNGMDDLILDGHNILDGLRTQRLTLKGTQKKILDIANMLGLSNTVMRLIEKRAFQDKYFMIGGMLLTCVVMFLVVQYLT
partner: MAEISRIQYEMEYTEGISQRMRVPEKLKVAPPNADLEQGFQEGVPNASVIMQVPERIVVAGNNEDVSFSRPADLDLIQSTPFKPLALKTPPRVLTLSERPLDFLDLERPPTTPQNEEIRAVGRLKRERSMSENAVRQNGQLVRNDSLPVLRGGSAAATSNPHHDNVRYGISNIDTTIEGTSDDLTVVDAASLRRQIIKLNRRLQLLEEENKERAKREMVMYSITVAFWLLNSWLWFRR
B7: Catenin alpha-3 (Homo sapiens), Q9UI47-2 (parent)
chain: B1 chain
partner: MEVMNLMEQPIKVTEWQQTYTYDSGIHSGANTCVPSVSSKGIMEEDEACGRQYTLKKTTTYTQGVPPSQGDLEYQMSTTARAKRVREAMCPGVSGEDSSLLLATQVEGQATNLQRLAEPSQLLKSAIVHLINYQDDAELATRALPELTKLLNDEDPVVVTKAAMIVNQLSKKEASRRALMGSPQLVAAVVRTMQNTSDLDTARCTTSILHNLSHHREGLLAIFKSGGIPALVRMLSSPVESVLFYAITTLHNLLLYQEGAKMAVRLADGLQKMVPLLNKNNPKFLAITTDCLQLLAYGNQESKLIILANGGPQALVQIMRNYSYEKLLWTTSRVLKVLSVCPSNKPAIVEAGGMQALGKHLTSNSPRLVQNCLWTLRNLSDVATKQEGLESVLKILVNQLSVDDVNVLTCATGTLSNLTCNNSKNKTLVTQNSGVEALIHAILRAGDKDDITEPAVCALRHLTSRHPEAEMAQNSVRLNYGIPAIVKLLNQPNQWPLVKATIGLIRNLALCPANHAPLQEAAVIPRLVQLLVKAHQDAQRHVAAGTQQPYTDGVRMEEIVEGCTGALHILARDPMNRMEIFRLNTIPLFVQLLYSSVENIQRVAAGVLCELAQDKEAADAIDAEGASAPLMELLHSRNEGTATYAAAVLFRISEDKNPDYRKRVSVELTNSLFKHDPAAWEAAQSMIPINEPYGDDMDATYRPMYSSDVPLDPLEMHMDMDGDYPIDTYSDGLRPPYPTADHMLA
B8: Catenin alpha-3 (Homo sapiens), Q9UI47-2 (parent)
chain: B1 chain
partner: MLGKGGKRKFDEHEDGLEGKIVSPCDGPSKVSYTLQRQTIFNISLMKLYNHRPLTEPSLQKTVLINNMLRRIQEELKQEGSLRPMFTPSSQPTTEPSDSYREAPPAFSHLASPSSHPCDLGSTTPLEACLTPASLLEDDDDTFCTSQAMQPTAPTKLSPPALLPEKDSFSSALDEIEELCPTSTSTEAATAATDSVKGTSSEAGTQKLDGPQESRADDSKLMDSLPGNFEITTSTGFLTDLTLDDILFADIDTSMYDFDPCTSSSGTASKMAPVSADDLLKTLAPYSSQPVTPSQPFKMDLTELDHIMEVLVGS
B9: Catenin alpha-3 (Homo sapiens), Q9UI47-2 (parent)
chain: B1 chain
partner: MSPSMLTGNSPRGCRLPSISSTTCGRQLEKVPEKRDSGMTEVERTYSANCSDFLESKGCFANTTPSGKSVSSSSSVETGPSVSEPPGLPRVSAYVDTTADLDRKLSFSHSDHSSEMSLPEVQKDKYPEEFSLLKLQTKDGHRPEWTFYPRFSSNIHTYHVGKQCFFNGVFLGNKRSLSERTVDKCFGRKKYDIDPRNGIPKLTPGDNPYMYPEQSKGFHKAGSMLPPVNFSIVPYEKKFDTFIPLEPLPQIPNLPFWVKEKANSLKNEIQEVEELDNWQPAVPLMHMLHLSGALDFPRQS
B10: Catenin alpha-3 (Homo sapiens), Q9UI47-2 (parent)
chain: B1 chain
partner: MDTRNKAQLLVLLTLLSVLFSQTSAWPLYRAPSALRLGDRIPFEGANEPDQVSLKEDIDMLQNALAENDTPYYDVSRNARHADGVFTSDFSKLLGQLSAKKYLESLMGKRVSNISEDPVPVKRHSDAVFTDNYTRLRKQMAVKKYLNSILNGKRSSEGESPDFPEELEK

Variants of: B1
Settings: with marh7_human MARCHF7, Q9H992

| effect of a mutation on the interaction | Variant |
| --- | --- |
| with no effect | V94D |

Variants of: B2
Settings: with go45_human BLZF1, Q9H2G9

| effect of a mutation on the interaction | Variant |
| --- | --- |
| disrupting interaction strength | V94D |

Variants of: B3
Settings: with FAM161B

| effect of a mutation on the interaction | Variant |
| --- | --- |
| with no effect | V94D |

Variants of: B4
Settings: with hacd1_human HACD1, B0YJ81

| effect of a mutation on the interaction | Variant |
| --- | --- |
| disrupting interaction strength | P182L |

Variants of: B5
Settings: with plal2_human PLAGL2, Q9UPG8

| effect of a mutation on the interaction | Variant |
| --- | --- |
| disrupting interaction strength | V94D |

Variants of: B6
Settings: with MFF

| effect of a mutation on the interaction | Variant |
| --- | --- |
| disrupting interaction strength | G144W |

Variants of: B7
Settings: with plak_human JUP

| effect of a mutation on the interaction | Variant |
| --- | --- |
| disrupting interaction strength | V94D |

Variants of: B8
Settings: with srtd2_human SERTAD2, Q14140

| effect of a mutation on the interaction | Variant |
| --- | --- |
| disrupting interaction strength | V94D |

Variants of: B9
Settings: with spas1_human SPATS1, Q496A3

| effect of a mutation on the interaction | Variant |
| --- | --- |
| disrupting interaction strength | V94D |

Variants of: B10
Settings: with VIP

| effect of a mutation on the interaction | Variant |
| --- | --- |
| disrupting interaction strength | V94D |

Reference: IntAct's records for PubMed 32296183
